The source of these data is patent US20220056125A1 (CEPHALON, published 2022).

Assay [1] concerns the target T1, rat PAR-2 on cells (rat, UniProt Q63645 26-397).
T1 construct: transiently transfected CHEM-1 cells
T1 sequence: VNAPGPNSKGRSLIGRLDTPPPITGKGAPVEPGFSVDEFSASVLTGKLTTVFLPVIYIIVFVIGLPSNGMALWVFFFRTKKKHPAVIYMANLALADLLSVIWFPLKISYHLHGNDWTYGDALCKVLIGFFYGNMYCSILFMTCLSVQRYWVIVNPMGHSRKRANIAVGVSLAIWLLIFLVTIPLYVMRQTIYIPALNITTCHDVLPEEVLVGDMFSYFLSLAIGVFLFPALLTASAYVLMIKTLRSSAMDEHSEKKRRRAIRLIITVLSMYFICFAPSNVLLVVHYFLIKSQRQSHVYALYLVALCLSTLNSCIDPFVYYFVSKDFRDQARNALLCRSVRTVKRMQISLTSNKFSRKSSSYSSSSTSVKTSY
Description: flow cytometry, transiently transfected CHEM-1 cells. The protocol: The cells were plated in 96 well plates at 2×10⁵ cells/well. Following a wash step using Phosphate buffered saline (PBS), the primary antibody (anti-PAR-2 antibody) was added at a concentration of 10 μg/mL in 50 μL of FACS buffer (0.5% w/v BSA in PBS) to each well and incubated for 10-15 mins. Following a wash step, secondary antibody (anti-human Fc-FITC) was added to the wells at 1:200 dilution in 50 μL for 10-15 mins. Following a washing step, the cells were re-suspended in fluorescence-activated cell sorting (FACS) buffer. The flow cytometry analysis was performed on an Intellicyt iQue screener. Gates were drawn around the different intensities of encoder dye-positive cells and these populations were analyzed separately from each other and the unlabeled cells for binding by the primary antibody.
P24E1102 binding was also assessed by flow cytometry, as described in Example 1 supra, using PAR-2 transiently transfected into CHEM-1 cells. In addition to human, cynomolgus, mouse and rat, guinea pig, rabbit and dog PAR-2 were also tested. P24E1102 bound well to human and cynomolgus PAR-2 but minimally to all other species tested.
On the technique in general: A flow cytometer gives signals particle by particle.

For assay [2], the target named is T2, human PAR-2 (human, UniProt P55085 26-397).
T2 sequence: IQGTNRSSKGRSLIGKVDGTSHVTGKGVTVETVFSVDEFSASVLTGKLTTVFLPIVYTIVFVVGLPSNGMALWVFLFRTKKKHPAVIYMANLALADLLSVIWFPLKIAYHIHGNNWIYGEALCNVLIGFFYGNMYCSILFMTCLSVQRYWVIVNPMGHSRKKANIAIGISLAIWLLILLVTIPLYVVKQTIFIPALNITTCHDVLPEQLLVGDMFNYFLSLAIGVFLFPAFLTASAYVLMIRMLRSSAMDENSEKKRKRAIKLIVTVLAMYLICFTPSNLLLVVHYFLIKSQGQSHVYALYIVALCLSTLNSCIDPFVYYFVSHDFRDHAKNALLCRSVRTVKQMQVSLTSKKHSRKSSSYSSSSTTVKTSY
Description: cell-based or functional assay.

For assay [3], the target named is T2, human PAR-2. Description: cell-based or functional assay. This is another data set of the same source.
The target of assay [4] is T3, recombinant human PAR-2 (human, UniProt P55085 37-397, limits assumed).
T3 construct: detergent-solubilised preparation used in SPR; also called recombinant PAR-2
T3 sequence: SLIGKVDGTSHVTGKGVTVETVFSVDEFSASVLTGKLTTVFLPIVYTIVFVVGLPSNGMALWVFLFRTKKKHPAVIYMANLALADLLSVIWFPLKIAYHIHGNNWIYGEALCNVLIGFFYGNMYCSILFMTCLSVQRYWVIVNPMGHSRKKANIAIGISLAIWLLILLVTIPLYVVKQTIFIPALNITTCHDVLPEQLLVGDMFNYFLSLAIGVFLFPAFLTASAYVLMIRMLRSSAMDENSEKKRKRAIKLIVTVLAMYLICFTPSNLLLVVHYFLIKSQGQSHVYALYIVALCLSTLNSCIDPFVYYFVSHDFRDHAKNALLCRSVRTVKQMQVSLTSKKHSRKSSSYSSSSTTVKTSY
Description: SPR, antibody captured on Protein A chip, recombinant PAR-2 injected. As to the method: (§1) Selected antibodies were tested for binding to various species of PAR-2 using surface plasmon resonance (SPR) assay for antibody binding to recombinant PAR-2, except that human PAR-2 was substituted with PAR-2 from cynomolgus monkeys, rat, or mice.
(§2) Antibodies were transfected and harvested as described in Example 3, supra. Antibodies in supernatant were diluted 1 in 50-250 in running buffer (50 mM HEPES, 250 mM NaCl, 0.1% w/v LMNG, 0.025% w/v CHAPS, 0.005% CHS, pH 7.4) and purified antibodies were diluted to 0.5 ug/mL in running buffer A Series S Protein A chip was docked into the instrument (Biacore S20) and the system was primed four times with running buffer prior to the run. Recombinant human PAR-2 was diluted to 0-5 μg/mL in running buffer. The surface was regenerated using 50 mM NaOH. The antibody was captured to between 20 to 110 Relative Units on the chip surface. The sample (recombinant PAR-2) was injected for 1 min at 30 μl/min, followed by dissociation phase of 180s. Sensorgrams were double referenced by buffer subtraction and by reference cell subtraction. Binding curves were then fit to a 1:1 binding model with kinetic constants derived from curve fits. Antibodies were ranked by dissociation rate (kd) when only one concentration of antigen was injected. Antibodies were ranked by their equilibrium dissociation constant (KD) when multiple concentrations of PAR-2 were injected. […]
A general note: Surface plasmon resonance follows binding to a sensor surface in real time, without labels.

Assay [5] concerns the target T4, recombinant cynomolgus monkey PAR-2 (cynomolgus monkey).
T4 construct: also called cynomolgus PAR-2
The assay is described as above. The protocol:
as §1, §2

Assay [6] concerns the target T2, human PAR-2. Description: cell-based or functional assay. This is another data set of the same source.
For assay [7], the target named is T2, human PAR-2. Description: cell-based or functional assay. This is another data set of the same source.

T4 sequence (Q863Y8 other isoform, or with tags, fused parts or gaps): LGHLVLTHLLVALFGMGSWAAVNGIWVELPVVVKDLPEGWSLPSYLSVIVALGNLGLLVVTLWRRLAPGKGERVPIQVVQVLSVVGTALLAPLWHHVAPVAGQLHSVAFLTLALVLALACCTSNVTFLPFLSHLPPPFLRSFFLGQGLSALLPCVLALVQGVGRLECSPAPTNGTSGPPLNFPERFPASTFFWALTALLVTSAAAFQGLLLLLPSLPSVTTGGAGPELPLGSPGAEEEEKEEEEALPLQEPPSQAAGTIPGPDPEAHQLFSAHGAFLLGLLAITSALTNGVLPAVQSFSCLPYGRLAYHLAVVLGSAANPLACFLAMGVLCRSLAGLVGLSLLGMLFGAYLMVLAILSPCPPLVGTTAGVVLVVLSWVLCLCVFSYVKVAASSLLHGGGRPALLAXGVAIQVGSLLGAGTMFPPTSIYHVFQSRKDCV

B1: P24E1102 (antibody, human IgG4 S228P, kappa, V domains shown)
VH: QVQLVQSGAEVKKPGSSVKVSCKASGFSLSSYAISWVRQAPGQGLEWMGVIWGNQNVYYAQKFQGRVTITADESTSTAYMELSSLRSEDTAVYYCARWKGYKDYPFDYWGQGTLVTVSS
VL: EIVLTQSPATLSLSPGERATLSCRASQNVYKWLDWYQQKPGQAPRLLIYNANTRATGIPARFSGSGSGRDFTLTISSLEPEDFAVYYCQQHHSGWTFGGGTKVEIKR
notes: human IgG4 S228P K447del / kappa; also called Anti-PAR-2 (P24E1102); TEV-56192 P24E1102
Consider B1, for which, in assay [1], the binding result is listed as “binds”. Also, the “PAR-2 β-arrestin cell based assay IC50, 2 µM SLIGKV” value in assay [2] came out at 1.4 nM. The “IC50, PAR-2 activating ligand-induced calcium flux in A549 cells” value in assay [3] is 13.2 nM. Further, the Kd in assay [4] was 0.433 to 0.946 nM. Further, the Kd in assay [5] worked out at 4.45 nM. Moreover, in assay [6], the “IC50 mean, calcium flux at SLIGKV EC80, Nomad line” value was 2.07 nM and the “IC50 mean, β-arrestin at SLIGKV EC80, Nomad line” value turned out to be 5.38 nM. Moreover, in assay [7], the “Calcium flux IC50” value turned out to be 17.4 nM, the “IL-6 release in A549 cells IC50” value was determined as 5 nM and the “IL-8 release in A549 cells IC50” value worked out at 4.62 nM.

In general, Kd refers to the constant that tells how readily two partners part at equilibrium.
